Source: paper PMC8322834 (Biochemistry, 2020)
No end group written: not given here. AlexaFluor 488 = AlexaFluor 488 dye

Biological target: DnaK (E. coli Hsp70 chaperone), ADP-state (E. coli, UniProt P0A6Y8 1-638)
Test: fluorescence polarisation

Chain of DnaK (E. coli Hsp70 chaperone), ADP-state (P0A6Y8 whole entry): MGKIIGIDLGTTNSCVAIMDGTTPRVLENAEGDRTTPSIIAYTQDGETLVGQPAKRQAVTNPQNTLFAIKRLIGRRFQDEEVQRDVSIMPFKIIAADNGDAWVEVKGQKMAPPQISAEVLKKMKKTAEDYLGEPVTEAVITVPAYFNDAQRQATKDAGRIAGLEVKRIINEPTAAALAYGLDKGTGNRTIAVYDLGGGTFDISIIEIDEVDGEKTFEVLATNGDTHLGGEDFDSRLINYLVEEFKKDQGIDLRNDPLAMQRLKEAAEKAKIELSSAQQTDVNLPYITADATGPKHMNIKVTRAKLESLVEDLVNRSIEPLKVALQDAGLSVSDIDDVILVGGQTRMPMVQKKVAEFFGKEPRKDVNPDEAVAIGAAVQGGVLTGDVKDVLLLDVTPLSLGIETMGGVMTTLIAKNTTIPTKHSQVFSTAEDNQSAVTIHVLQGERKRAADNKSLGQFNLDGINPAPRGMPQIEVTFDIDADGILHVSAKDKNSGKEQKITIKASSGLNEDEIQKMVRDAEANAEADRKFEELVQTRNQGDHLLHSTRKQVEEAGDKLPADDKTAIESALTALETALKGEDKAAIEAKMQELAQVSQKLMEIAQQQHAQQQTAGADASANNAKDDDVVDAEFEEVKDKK

B1: KLR-70-C-AF488, AlexaFluor 488-conjugated KLR-70 peptide (peptide)
peptide: RRGKKLLLLLKKKGC(AlexaFluor 488)
Kd: 1730 nM
